Measured values from patent US20130150301A1 (KAI PHARMACEUTICALS, published 2013).
Ends that are not written are not given here.

B1: Ac-c(GS)rrrrrr-NH2 (SEQ ID NO: 53) (peptide)
peptide: XXXXXXX
modifications: not fully specified; N-terminal acetyl; C-terminal amide; all D-residues; oxidized glutathione (GS) attached to the side chain of D-Cys 1
B2: Ac-bAla-crrrrrr-NH2 (SEQ ID NO: 30) (peptide)
peptide: XXXXXXXX
modifications: acetylated beta-alanine (Ac-bAla) at the N-terminus; C-terminal amide; D-Cys and six D-Arg
B3: Ac-c(Mpa)arrrar-NH2 (SEQ ID NO: 56) (peptide)
peptide: XXXXXXX
modifications: N-terminal acetyl; C-terminal amide; all D-residues; mercaptopropionic acid (Mpa) attached to the side chain of D-Cys 1
B4: Ac-c(C)arrrar-NH2 (SEQ ID NO: 3) (peptide)
peptide: XXXXXXX
modifications: N-terminal acetyl; C-terminal amide; all seven residues D; D-Cys 1 conjugated via a disulfide linkage to an L-Cys residue (C)
B5: conjugate of SEQ ID NO: 45 (CHDAPIGYD) and SEQ ID NO: 47 (Ac-CYGRKKRRQRRR-NH2) (peptide)
peptide 1: CHDAPIGYD
peptide 2: Ac-CYGRKKRRQRRR-NH2
modifications: not fully specified; cysteine pairing not given here; also: further groups not given here
B6: Ac-carrrar-OH (SEQ ID NO: 74) (peptide)
peptide: XXXXXXX
modifications: N-terminal acetyl; free C-terminal acid (-OH); all D-residues
B7: Ac-dHcy rrrrrr-NH2 (SEQ ID NO: 32) (peptide)
peptide: XXXXXXX
modifications: N-terminal acetyl; C-terminal amide; D-homocysteine (dHcy) at position 1; D-Arg 2-7
B8: c(C)arrrar-NH2 (SEQ ID NO: 60) (peptide)
peptide: XXXXXXX
modifications: no N-terminal cap; C-terminal amide; all D-residues; L-Cys (C) attached to the side chain of D-Cys 1
B9: crrrrrr-NH2 (SEQ ID NO: 80) (peptide)
peptide: XXXXXXX
modifications: no N-terminal cap; C-terminal amide; all D-residues
B10: Ac-YGRKKRRQRRR-NH2 (SEQ ID NO: 48) (peptide)
peptide: Ac-YGRKKRRQRRR-NH2
B11: Ac-crrrr-NH2 (SEQ ID NO: 4) (peptide)
peptide: XXXXX
modifications: N-terminal acetyl; C-terminal amide; all D-residues
B12: Ac-c(Benzoyl)rrrrrr-NH2 (SEQ ID NO: 81) (peptide)
peptide: XXXXXXX
modifications: N-terminal acetyl; C-terminal amide; all D-residues; benzoyl attached to the side chain of D-Cys 1
B13: Ac-cArrrAr-NH2 (SEQ ID NO: 43) (peptide)
peptide: XAXXXAX
modifications: N-terminal acetyl; C-terminal amide; D-Cys 1, L-Ala 2 and 6, D-Arg 3, 4, 5 and 7
B14: conjugate of SEQ ID NO: 46 (CPDYHDAGI) and SEQ ID NO: 47 (Ac-CYGRKKRRQRRR-NH2) (peptide)
peptide 1: CPDYHDAGI
peptide 2: Ac-CYGRKKRRQRRR-NH2
modifications: not fully specified; cysteine pairing not given here
B15: Ac-CARRRAR-NH2 (SEQ ID NO: 75) (peptide)
peptide: Ac-CARRRAR-NH2
B16: Ac-caaarrrrrr-NH2 (SEQ ID NO: 77) (peptide)
peptide: XXXXXXXXXX
HELM: PEPTIDE1{[ac].[dC].[dA].[dA].[dA].[dR].[dR].[dR].[dR].[dR].[dR].[am]}$$$$V2.0
SMILES: CC(=O)N[C@H](CS)C(=O)N[C@H](C)C(=O)N[C@H](C)C(=O)N[C@H](C)C(=O)N[C@H](CCCNC(=N)N)C(=O)N[C@H](CCCNC(=N)N)C(=O)N[C@H](CCCNC(=N)N)C(=O)N[C@H](CCCNC(=N)N)C(=O)N[C@H](CCCNC(=N)N)C(=O)N[C@H](CCCNC(=N)N)C(N)=O
B17: Ac-c(PEG5-C)rrrrrr-NH2 (SEQ ID NO: 58) (peptide)
peptide: XXXXXXX
modifications: N-terminal acetyl; C-terminal amide; all D-residues; L-Cys carrying a 5 kDa polyethylene glycol (PEG5-C) attached to the side chain of D-Cys 1
B18: Ac-CaRrRaR-NH2 (SEQ ID NO: 44) (peptide)
peptide: CXRXRXR
modifications: N-terminal acetyl; C-terminal amide; L-Cys 1, D-Ala 2, L-Arg 3, D-Arg 4, L-Arg 5, D-Ala 6, L-Arg 7
B19: Ac-C(C)arrrar-NH2 (SEQ ID NO: 34) (peptide)
peptide: XXXXXXX
modifications: not fully specified; N-terminal acetyl; C-terminal amide; L-Cys 1 conjugated via a disulfide linkage to an L-Cys residue (C); residues 2-7 D
B20: Ac-cygrkkrrqrrr-NH2 (SEQ ID NO: 50) (peptide)
peptide: XXXXXXXXXXXX
modifications: N-terminal acetyl; C-terminal amide; all D-residues (glycine printed in lower case)
B21: Ac-CYGRKKRRQRRR-NH2 (SEQ ID NO: 47) (peptide)
peptide: Ac-CYGRKKRRQRRR-NH2
B22: Ac-c(acetyl)rrrrrr-NH2 (SEQ ID NO: 82) (peptide)
peptide: XXXXXXX
modifications: N-terminal acetyl; C-terminal amide; all D-residues; acetyl attached to the side chain of D-Cys 1
B23: Ac-c(Ac-C)arrrar-NH2 (SEQ ID NO: 55) (peptide)
peptide: XXXXXXX
modifications: N-terminal acetyl; C-terminal amide; all D-residues; N-acetylated L-Cys (Ac-C) attached to the side chain of D-Cys 1
B24: Ac-bAla-c(C)arrrar-NH2 (SEQ ID NO: 61) (peptide)
peptide: XXXXXXXX
modifications: acetylated beta-alanine (Ac-bAla) at the N-terminus; C-terminal amide; carrrar all D; L-Cys (C) attached to the side chain of the D-Cys
B25: Ac-cGrrrGr-NH2 (SEQ ID NO: 42) (peptide)
peptide: XGXXXGX
modifications: N-terminal acetyl; C-terminal amide; D-Cys 1, Gly 2 and 6, D-Arg 3, 4, 5 and 7
B26: Ac-carrrar-NH2 (SEQ ID NO: 26) (peptide)
peptide: XXXXXXX
modifications: N-terminal acetyl; C-terminal amide; all D-residues
B27: Ac-crarrrr-NH2 (SEQ ID NO: 9) (peptide)
peptide: XXXXXXX
HELM: PEPTIDE1{[ac].[dC].[dR].[dA].[dR].[dR].[dR].[dR].[am]}$$$$V2.0
SMILES: CC(=O)N[C@H](CS)C(=O)N[C@H](CCCNC(=N)N)C(=O)N[C@H](C)C(=O)N[C@H](CCCNC(=N)N)C(=O)N[C@H](CCCNC(=N)N)C(=O)N[C@H](CCCNC(=N)N)C(=O)N[C@H](CCCNC(=N)N)C(N)=O
B28: Ac-carrrrr-NH2 (SEQ ID NO: 8) (peptide)
peptide: XXXXXXX
HELM: PEPTIDE1{[ac].[dC].[dA].[dR].[dR].[dR].[dR].[dR].[am]}$$$$V2.0
SMILES: CC(=O)N[C@H](CS)C(=O)N[C@H](C)C(=O)N[C@H](CCCNC(=N)N)C(=O)N[C@H](CCCNC(=N)N)C(=O)N[C@H](CCCNC(=N)N)C(=O)N[C@H](CCCNC(=N)N)C(=O)N[C@H](CCCNC(=N)N)C(N)=O
B29: Ac-crrrrra-NH2 (SEQ ID NO: 13) (peptide)
peptide: XXXXXXX
HELM: PEPTIDE1{[ac].[dC].[dR].[dR].[dR].[dR].[dR].[dA].[am]}$$$$V2.0
SMILES: CC(=O)N[C@H](CS)C(=O)N[C@H](CCCNC(=N)N)C(=O)N[C@H](CCCNC(=N)N)C(=O)N[C@H](CCCNC(=N)N)C(=O)N[C@H](CCCNC(=N)N)C(=O)N[C@H](CCCNC(=N)N)C(=O)N[C@H](C)C(N)=O
B30: Ac-crrarrr-NH2 (SEQ ID NO: 10) (peptide)
peptide: XXXXXXX
HELM: PEPTIDE1{[ac].[dC].[dR].[dR].[dA].[dR].[dR].[dR].[am]}$$$$V2.0
SMILES: CC(=O)N[C@H](CS)C(=O)N[C@H](CCCNC(=N)N)C(=O)N[C@H](CCCNC(=N)N)C(=O)N[C@H](C)C(=O)N[C@H](CCCNC(=N)N)C(=O)N[C@H](CCCNC(=N)N)C(=O)N[C@H](CCCNC(=N)N)C(N)=O

target: T1, human calcium-sensing receptor (CaSR) (human, UniProt P41180 20-1078); assay: cell-based or functional assay
T1 sequence (looked up): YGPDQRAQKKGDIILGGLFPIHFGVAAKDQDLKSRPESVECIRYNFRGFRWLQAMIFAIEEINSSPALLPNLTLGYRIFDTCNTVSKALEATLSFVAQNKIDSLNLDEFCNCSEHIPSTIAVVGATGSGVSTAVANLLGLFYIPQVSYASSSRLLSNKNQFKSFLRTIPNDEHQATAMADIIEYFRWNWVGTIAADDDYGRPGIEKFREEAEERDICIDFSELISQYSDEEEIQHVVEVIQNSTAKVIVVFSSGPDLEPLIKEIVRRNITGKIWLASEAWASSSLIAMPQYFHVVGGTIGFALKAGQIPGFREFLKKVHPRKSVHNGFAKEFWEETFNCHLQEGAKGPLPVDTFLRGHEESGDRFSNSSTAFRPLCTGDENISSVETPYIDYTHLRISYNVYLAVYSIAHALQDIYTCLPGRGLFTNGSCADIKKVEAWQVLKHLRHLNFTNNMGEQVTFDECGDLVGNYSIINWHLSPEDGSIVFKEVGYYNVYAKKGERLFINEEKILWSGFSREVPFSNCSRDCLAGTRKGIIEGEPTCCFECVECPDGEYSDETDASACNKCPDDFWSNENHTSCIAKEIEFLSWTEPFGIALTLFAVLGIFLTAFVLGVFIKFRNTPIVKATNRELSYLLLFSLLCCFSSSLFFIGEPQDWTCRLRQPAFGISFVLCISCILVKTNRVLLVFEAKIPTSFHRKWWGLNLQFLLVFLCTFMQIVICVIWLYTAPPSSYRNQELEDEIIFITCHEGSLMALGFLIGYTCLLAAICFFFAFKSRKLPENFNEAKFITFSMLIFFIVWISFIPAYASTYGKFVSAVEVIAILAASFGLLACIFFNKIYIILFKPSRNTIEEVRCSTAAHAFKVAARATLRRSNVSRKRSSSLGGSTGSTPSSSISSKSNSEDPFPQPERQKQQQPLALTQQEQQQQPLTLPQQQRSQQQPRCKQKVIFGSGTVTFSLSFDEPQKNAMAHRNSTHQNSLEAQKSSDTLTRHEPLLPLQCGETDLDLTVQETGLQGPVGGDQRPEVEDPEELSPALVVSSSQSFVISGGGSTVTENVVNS

Row | Binder | EC50 (IP1 production in HEK293 cells that express the human CaSR) [µM]
1 | B1 | 7.8
2 | B2 | 1
3 | B3 | 21
4 | B4 | 10
5 | B5 | 21
6 | B6 | 31
7 | B7 | 2
8 | B8 | 3.1
9 | B9 | 1.1
10 | B10 | 16
11 | B11 | 16
12 | B12 | 3.6
13 | B13 | > 1000
14 | B14 | 21
15 | B15 | 58
16 | B16 | 4.6
17 | B17 | 0.58
18 | B18 | 5.6
19 | B19 | 2.5
20 | B20 | 2
21 | B21 | 4.5
22 | B22 | 4.1
23 | B23 | 21
24 | B24 | 2.6

target: T1, human calcium-sensing receptor (CaSR); assay: cell-based or functional assay; remark: another data set of the same source

Row | Binder | fold reduction in potency against Ac-carrrar-NH2 (SEQ ID NO:26) [fold] | shift in potency (HEK-293 in vitro cell assay), 4 against 5 arginine subunits [fold] | fold difference in potency against the CaSR, against Ac-crrrrrr-NH2 (SEQ ID NO:6) [fold] | fold decrease in potency against Ac-carrrar-NH2 (SEQ ID NO:26) [fold] | fold loss in in vitro potency against Ac-crrrrrr-NH2 (SEQ ID NO:6), human CaSR assay in HEK 293 cells [fold] | fold difference in potency against Ac-carrrar-NH2 (SEQ ID NO:26) [fold]
25 | B25 | < 8 |  |  |  |  | 
26 | B11 |  | > 10 |  |  |  | 
27 | B26 |  |  | ~3 |  |  | 
28 | B13 |  |  | > 2000 | > 600 |  | 
29 | B27 |  |  |  |  | ~2 | 
30 | B28 |  |  |  |  | ~2 | 
31 | B29 |  |  |  |  | ~2 | 
32 | B18 |  |  | 10 |  |  | < 4
33 | B30 |  |  |  |  | ~2 | 
